The results in this text go back to US20240270821A1, “GIP/GLP1/GCG TRI-RECEPTOR AGONISTS AND USES THEREOF” (priority 2023, published 2024).

Common to all, as to assay: cell-based or functional assay
One experiment concerns the target hGLP-1R (Homo sapiens, UniProt P43220).
The target in experiment [1] is T1, human GIP receptor (human) (UniProt P48546).
T1 sequence (looked up): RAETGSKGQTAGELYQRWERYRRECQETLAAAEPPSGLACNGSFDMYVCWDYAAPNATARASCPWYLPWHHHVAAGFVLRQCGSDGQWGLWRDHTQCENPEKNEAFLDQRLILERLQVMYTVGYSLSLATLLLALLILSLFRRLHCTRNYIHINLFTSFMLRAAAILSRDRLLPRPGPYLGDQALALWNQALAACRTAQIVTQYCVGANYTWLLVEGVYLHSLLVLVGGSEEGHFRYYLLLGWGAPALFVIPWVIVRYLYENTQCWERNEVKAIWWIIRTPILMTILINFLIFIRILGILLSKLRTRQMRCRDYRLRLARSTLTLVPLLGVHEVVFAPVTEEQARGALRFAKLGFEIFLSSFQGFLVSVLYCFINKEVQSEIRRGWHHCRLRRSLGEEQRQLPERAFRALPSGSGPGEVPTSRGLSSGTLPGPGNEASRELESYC

For experiment [2], the target named is human glucagon receptor (human) (UniProt P47871).
human glucagon receptor (human), sequence (P47871 26-477): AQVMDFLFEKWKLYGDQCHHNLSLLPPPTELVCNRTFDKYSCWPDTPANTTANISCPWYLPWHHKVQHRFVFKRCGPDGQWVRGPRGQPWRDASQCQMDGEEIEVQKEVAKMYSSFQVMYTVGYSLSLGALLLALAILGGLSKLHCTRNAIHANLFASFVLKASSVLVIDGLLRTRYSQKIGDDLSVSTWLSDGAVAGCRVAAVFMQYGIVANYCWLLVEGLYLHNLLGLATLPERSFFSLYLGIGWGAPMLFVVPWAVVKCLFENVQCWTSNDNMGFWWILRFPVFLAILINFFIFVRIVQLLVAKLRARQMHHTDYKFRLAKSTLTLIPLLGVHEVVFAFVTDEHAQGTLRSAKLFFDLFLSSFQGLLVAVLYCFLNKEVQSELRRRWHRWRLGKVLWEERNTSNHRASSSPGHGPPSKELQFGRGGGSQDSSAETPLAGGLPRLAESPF

hGLP-1R, sequence (P43220 24-463): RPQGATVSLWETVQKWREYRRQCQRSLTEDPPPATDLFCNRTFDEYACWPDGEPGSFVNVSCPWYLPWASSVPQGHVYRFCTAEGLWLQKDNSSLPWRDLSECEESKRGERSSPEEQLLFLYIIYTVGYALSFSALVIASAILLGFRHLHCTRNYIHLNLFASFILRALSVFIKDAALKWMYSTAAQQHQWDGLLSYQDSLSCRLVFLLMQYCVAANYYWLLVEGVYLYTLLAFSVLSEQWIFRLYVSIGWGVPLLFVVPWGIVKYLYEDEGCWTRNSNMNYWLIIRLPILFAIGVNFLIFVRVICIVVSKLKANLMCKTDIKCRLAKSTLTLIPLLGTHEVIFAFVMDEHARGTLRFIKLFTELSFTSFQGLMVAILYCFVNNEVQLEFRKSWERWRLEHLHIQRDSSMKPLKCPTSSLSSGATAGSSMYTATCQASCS

B1: Example 523 (peptide)
chain: YXQGTXTSDXXIXLDXKAQXXFIEYLIEGGPSSGEPPPSGTGE
modifications: synthetic construct; SITE 2: note = 2-Aminoisobutyric Acid; SITE 6: note = alpha-methyl-2-fluoro-L-phenylalanine; SITE 10: note = 3-(4-Pyridyl)-L-alanine; SITE 11: note = alpha-methyl-L-serine; SITE 13: note = alpha-methyl-leucine; SITE 16: note = L-ornithine; SITE 17: note = Lysine is chemically mo
For B1, the Relative cAMP EC50 was 0.482 nM in the experiment with hGLP-1R, 0.021 nM in experiment [1] and 3.79 nM in experiment [2]. In addition, the cAMP Rel EC50 (1% HSA) came out at 27.1 nM with hGLP-1R, 0.869 nM in experiment [1] and 234 nM in experiment [2].

B2: Example 545 (peptide)
chain: YXQGTXTSDXXIXLDXKAQXXFIEXLAEGGPSSGEPPPSGTGE
modifications: synthetic construct; SITE 2: note = 2-Aminoisobutyric Acid; SITE 6: note = alpha-methyl-2-fluoro-L-phenylalanine; SITE 10: note = 3-(4-Pyridyl)-L-alanine; SITE 11: note = alpha-methyl-L-serine; SITE 13: note = alpha-methyl-leucine; SITE 16: note = L-ornithine; SITE 17: note = Lysine is chemically mo
As for B2, the Relative cAMP EC50 in the experiment with hGLP-1R came to 0.602 nM; in experiment [1], 0.0432 nM; in experiment [2], 2.71 nM. Further, the results for the cAMP Rel EC50 (1% HSA) (with hGLP-1R; in experiment [1]; in experiment [2]) were 40.2 nM, 2.74 nM and 180 nM, respectively.

B3: Example 527 (peptide)
chain: YXQGTXTSDXXIXLDXKAQXNFIEXLQEGGPSSGEPPPEGTGE
modifications: synthetic construct; SITE 2: note = 2-Aminoisobutyric Acid; SITE 6: note = alpha-methyl-2-fluoro-L-phenylalanine; SITE 10: note = 3-(4-Pyridyl)-L-alanine; SITE 11: note = alpha-methyl-L-serine; SITE 13: note = alpha-methyl-leucine; SITE 16: note = L-ornithine; SITE 17: note = Lysine is chemically mo
For B3, the Relative cAMP EC50 in the experiment with hGLP-1R came to 0.446 nM; in experiment [1] it was 0.0386 nM; in experiment [2], 6.99 nM. The cAMP Rel EC50 (1% HSA) came out at 26.8 nM with hGLP-1R, 2.6 nM in experiment [1] and 580 nM in experiment [2].

B4: Example 543 (peptide)
chain: YXQGTXTSDXXIXLDXKAQXXFIEXLTEGGPSSGEPPPSGTGE
modifications: synthetic construct; SITE 2: note = 2-Aminoisobutyric Acid; SITE 6: note = alpha-methyl-2-fluoro-L-phenylalanine; SITE 10: note = 3-(4-Pyridyl)-L-alanine; SITE 11: note = alpha-methyl-L-serine; SITE 13: note = alpha-methyl-leucine; SITE 16: note = L-ornithine; SITE 17: note = Lysine is chemically mo
For B4, the Relative cAMP EC50 came to 0.41 nM with hGLP-1R, 0.0319 nM in experiment [1] and 4.56 nM in experiment [2]. Also, the cAMP Rel EC50 (1% HSA) is 32 nM with hGLP-1R, 1.88 nM in experiment [1] and 300 nM in experiment [2].

B5: Example 597 (peptide)
chain: YXQGTXTSDXXIXLDXKAQXXFIEXLTEGGPSSGEPPPEGTEE
modifications: acylated Lys (γGlu)2-C18 diacid; non-natural residues; C-terminal amide; synthetic construct; SITE 2: note = 2-Aminoisobutyric Acid; SITE 6: note = alpha-methyl-2-fluoro-L-phenylalanine; SITE 10: note = 3-(4-Pyridyl)-L-alanine; SITE 11: note = alpha-methyl-L-serine; SITE 13: note = alpha-methyl-leucine; SITE 16: note = L-ornithine; SITE 17: note = Lysine is chemically mo
Regarding B5, the figures for the Relative cAMP EC50 (with hGLP-1R; in experiment [1]; in experiment [2]) were 0.6 nM, 0.0643 nM and 5.2 nM, respectively. Also, the cAMP Rel EC50 (in the presence of 1% HSA) with hGLP-1R is 36.4 nM; in experiment [1], 2.38 nM; in experiment [2] it was 329 nM.

B6: Example 524 (peptide)
chain: YXQGTXTSDXXIXLDXKAQXXFIEYLIEGGPSSGEPPPSGTGE
modifications: not fully specified; C-terminal amide; synthetic construct; SITE 2: note = 2-Aminoisobutyric Acid; SITE 6: note = alpha-methyl-2-fluoro-L-phenylalanine; SITE 10: note = 3-(4-Pyridyl)-L-alanine; SITE 11: note = alpha-methyl-L-serine; SITE 13: note = alpha-methyl-leucine; SITE 16: note = L-ornithine; SITE 17: note = Lysine is chemically mo
Take B6: the Relative cAMP EC50 in the experiment with hGLP-1R is 0.487 nM; in experiment [1] it was 0.0266 nM; in experiment [2], 5.11 nM. Further, the results for the cAMP Rel EC50 (1% HSA) (with hGLP-1R; in experiment [1]; in experiment [2]) were 32.7 nM, 1.46 nM and 464 nM, respectively.

B7: Example 529 (peptide)
chain: YXQGTXTSDXXIXLDXKAQXQFIEXLQEGGPSSGEPPPEGTGE
modifications: synthetic construct; SITE 2: note = 2-Aminoisobutyric Acid; SITE 6: note = alpha-methyl-2-fluoro-L-phenylalanine; SITE 10: note = 3-(4-Pyridyl)-L-alanine; SITE 11: note = alpha-methyl-L-serine; SITE 13: note = alpha-methyl-leucine; SITE 16: note = L-ornithine; SITE 17: note = Lysine is chemically mo
As for B7, the Relative cAMP EC50 with hGLP-1R turned out to be 0.467 nM; in experiment [1], 0.0273 nM; in experiment [2], 6.59 nM. In addition, the cAMP Rel EC50 (1% HSA) with hGLP-1R came to 24.5 nM; in experiment [1], 1.39 nM; in experiment [2], 398 nM.

B8: Example 54 (peptide)
chain: YXQGTFTSDFSKXLDKKAQXAFIEYLLEGGPSSGEPPPGEGX
modifications: synthetic construct; SITE 2: note = 2-Aminoisobutyric Acid; SITE 13: note = alpha-methyl-leucine; SITE 17: note = Lysine is chemically modified through conjugation of the epsilon-amino group of the Lysine side chain with (2-[2-(2-Amino-ethoxy)-ethoxy]-acetyl)-(gamma-Glu)-CO-(CH2) 18-CO2H; SITE 20: n
As for B8, the figures for the Relative cAMP EC50 (with hGLP-1R; in experiment [1]; in experiment [2]) were 3.95 nM, 0.502 nM and 3.77 nM, respectively. Also, the figures for the cAMP Rel EC50, nM (in the presence of 1% HSA) (with hGLP-1R; in experiment [1]; in experiment [2]) were 1300 nM, 168 nM and 1940 nM, respectively.

B9: Example 56 (peptide)
chain: YXQGTFTSDFSKXLDKKAQXAFIEYLLEGGPSSGAPPPSEGX
modifications: synthetic construct; SITE 2: note = 2-Aminoisobutyric Acid; SITE 13: note = alpha-methyl-leucine; SITE 17: note = Lysine is chemically modified through conjugation of the epsilon-amino group of the Lysine side chain with (2-[2-(2-Amino-ethoxy)-ethoxy]-acetyl)-(gamma-Glu)-CO-(CH2) 16-CO2H; SITE 20: n
On to B9, for which the Relative cAMP EC50 was determined as 4.07 nM in the experiment with hGLP-1R, 0.315 nM in experiment [1] and 2.8 nM in experiment [2]. Besides, the cAMP Rel EC50, nM (in the presence of 1% HSA) with hGLP-1R is 167 nM; in experiment [1] it was 30.3 nM; in experiment [2] it was 265 nM.

B10: Example 52 (peptide)
chain: YXQGTFTSDFSKXLDKKAQXAFIEYLLEGGPSSGAPPPXEG
modifications: synthetic construct; SITE 2: note = 2-Aminoisobutyric Acid; SITE 13: note = alpha-methyl-leucine; SITE 17: note = Lysine is chemically modified through conjugation of the epsilon-amino group of the Lysine side chain with (2-[2-(2-Amino-ethoxy)-ethoxy]-acetyl)-(gamma-Glu)-CO-(CH2) 18-CO2H; SITE 20: n
B10: the results for the Relative cAMP EC50 (in the experiment with hGLP-1R; in experiment [1]; in experiment [2]) were 5.18 nM, 0.449 nM and 5.84 nM, respectively. In addition, the cAMP Rel EC50, nM (in the presence of 1% HSA) in the experiment with hGLP-1R amounted to 1250 nM; in experiment [1] it was 111 nM; in experiment [2] it was 1740 nM.

B11: Example 53 (peptide)
chain: YXQGTFTSDFSKXLDKKAQXAFIEYLLEGGPSSGAPPPXGE
modifications: synthetic construct; SITE 2: note = 2-Aminoisobutyric Acid; SITE 13: note = alpha-methyl-leucine; SITE 17: note = Lysine is chemically modified through conjugation of the epsilon-amino group of the Lysine side chain with (2-[2-(2-Amino-ethoxy)-ethoxy]-acetyl)-(gamma-Glu)-CO-(CH2) 18-CO2H; SITE 20: n
B11: the figures for the Relative cAMP EC50 (with hGLP-1R; in experiment [1]; in experiment [2]) were 3.31 nM, 0.518 nM and 4.19 nM, respectively. Besides, the cAMP Rel EC50, nM (in the presence of 1% HSA) worked out at 1030 nM with hGLP-1R, 113 nM in experiment [1] and 1780 nM in experiment [2].
